Source: patent publication US20230193409A1

T1: AcrVIA1
T1 sequence: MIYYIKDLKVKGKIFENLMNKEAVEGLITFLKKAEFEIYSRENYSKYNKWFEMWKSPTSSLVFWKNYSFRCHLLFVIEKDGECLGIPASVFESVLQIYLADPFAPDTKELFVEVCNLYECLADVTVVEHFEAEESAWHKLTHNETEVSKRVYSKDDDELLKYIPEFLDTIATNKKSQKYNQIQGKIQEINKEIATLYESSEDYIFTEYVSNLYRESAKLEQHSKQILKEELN

T2: AcrVIA1-3xFLAG
T2 sequence: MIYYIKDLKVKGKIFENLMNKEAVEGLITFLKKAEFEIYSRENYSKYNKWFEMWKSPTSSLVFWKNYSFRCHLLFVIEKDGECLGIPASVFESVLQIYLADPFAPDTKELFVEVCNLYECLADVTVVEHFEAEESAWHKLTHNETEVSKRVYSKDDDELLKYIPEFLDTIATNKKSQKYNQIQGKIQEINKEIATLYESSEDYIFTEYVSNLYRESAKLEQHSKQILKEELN

T3: AcrVIA1-3xFLAG
T3 chain: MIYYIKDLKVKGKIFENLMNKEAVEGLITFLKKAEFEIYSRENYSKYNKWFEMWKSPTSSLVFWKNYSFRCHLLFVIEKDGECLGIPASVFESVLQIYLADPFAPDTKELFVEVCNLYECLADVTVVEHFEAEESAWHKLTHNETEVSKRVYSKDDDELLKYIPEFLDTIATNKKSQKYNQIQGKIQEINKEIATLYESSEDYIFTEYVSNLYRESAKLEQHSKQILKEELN

T4: AcrVIA1
T4 chain: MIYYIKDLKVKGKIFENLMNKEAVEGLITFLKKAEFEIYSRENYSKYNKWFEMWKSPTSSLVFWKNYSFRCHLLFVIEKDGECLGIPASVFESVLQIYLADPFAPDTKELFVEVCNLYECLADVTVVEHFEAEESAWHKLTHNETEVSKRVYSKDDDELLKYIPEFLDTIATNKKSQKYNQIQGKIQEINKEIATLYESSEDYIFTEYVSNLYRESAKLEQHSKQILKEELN

B1: Leptotrichia buccalis Cas13a (protein)
chain: MKVTKVGGISHKKYTSEGRLVKSESEENRTDERLSALLNMRLDMYIKNPSSTETKENQKRIGKLKKFFSNKMVYLKDNTLSLKNGKKENIDREYSETDILESDVRDKKNFAVLKKIYLNENVNSEELEVFRNDIKKKLNKINSLKYSFEKNKANYQKINENNIEKVEGKSKRNIIYDYYRESAKRDAYVSNVKEAFDKLYKEEDIAKLVLEIENLTKLEKYKIREFYHEIIGRKNDKENFAKIIYEEIQNVNNMKELIEKVPDMSELKKSQVFYKYYLDKEELNDKNIKYAFCHFVEIEMSQLLKNYVYKRLSNISNDKIKRIFEYQNLKKLIENKLLNKLDTYVRNCGKYNYYLQDGEIATSDFIARNRQNEAFLRNIIGVSSVAYFSLRNILETENENDITGRMRGKTVKNNKGEEKYVSGEVDKIYNENKKNEVKENLKMFYSYDFNMDNKNEIEDFFANIDEAISSIRHGIVHFNLELEGKDIFAFKNIAPSEISKKMFQNEINEKKLKLKIFRQLNSANVFRYLEKYKILNYLKRTRFEFVNKNIPFVPSFTKLYSRIDDLKNSLGIYWKTPKTNDDNKTKEIIDAQIYLLKNIYYGEFLNYFMSNNGNFFEISKEIIELNKNDKRNLKTGFYKLQKFEDIQEKIPKEYLANIQSLYMINAGNQDEEEKDTYIDFIQKIFLKGFMTYLANNGRLSLIYIGSDEETNTSLAEKKQEFDKFLKKYEQNNNIKIPYEINEFLREIKLGNILKYTERLNMFYLILKLLNHKELTNLKGSLEKYQSANKEEAFSDQLELINLLNLDNNRVTEDFELEADEIGKFLDFNGNKVKDNKELKKFDTNKIYFDGENIIKHRAFYNIKKYGMLNLLEKIADKAGYKISIEELKKYSNKKNEIEKNHKMQENLHRKYARPRKDEKFTDEDYESYKQAIENIEEYTHLKNKVEFNELNLLQGLLLRILHRLVGYTSIWERDLRFRLKGEFPENQYIEEIFNFENKKNVKYKGGQIVEKYIKFYKELHQNDEVKINKYSSANIKVLKQEKKDLYIRNYIAHFNYIPHAEISLLEVLENLRKLLSYDRKLKNAVMKSVVDILKEYGFVATFKIGADKKIGIQTLESEKIVHLKNLKKKKLMTDRNSEELCKLVKIMFEYKMEEKKSEN

Assays:
[1] = test system: T1, AcrVIA1
[2] = test system: T2, AcrVIA1-3xFLAG
[3] = biological target: T3, AcrVIA1-3xFLAG
[4] = biological target: T4, AcrVIA1

Molecule	cis-RNase activity: cleavage of radiolabeled target RNA in vitro [1]	nonspecific cleavage of labeled non-target RNA, AcrVIA1 added before target RNA ("Acr first" lane) [1]	trans-cleavage of a labeled non-target RNA upon addition of unlabeled protospacer RNA in vitro [1]	cis- and trans-RNA cleavage in vitro (FIG. 2A-B) [2]	cis-RNA cleavage of spc2-target RNA by L. buccalis Cas13a (10 nM) with AcrVIA1-3xFLAG at 400, 100, 10 or 1 nM [3]	cis-RNA cleavage of spc2-target RNA by L. buccalis Cas13a (10 nM) with AcrVIA1 at 400, 100, 10 or 1 nM [4]
L. seeligeri Cas13a-His6	In the presence of excess AcrVIA1, however, target RNA cleavage was inhibited	if the AcrVIA1 inhibitor is added to the reaction containing Cas13 before adding the target RNA, then AcrVIA1 prevents target RNA binding and no Cas13 activity is observed	AcrVIA1 inhibited Cas13a-mediated trans-cleavage of a labeled non-target RNA	confirmed that both are active in vivo ... and in vitro (FIG. 2A-B)	–	–
B1	–	–	–	–	AcrVIA1 does not inhibit Leptotrichia buccalis Cas13a	Addition of AcrVIA1 had no effect on protospacer RNA cleavage by purified L. buccalis Cas13a^crRNA
